According to patent US8679540B2, “Pharmaceutical formulations for the prolonged release of active principle(s), and their applications, especially therapeutic applications” (Flamel Technologies, priority 2006, dated 2014):

Key:
[1] = Pharmacokinetics of hGH in the dog after subcutaneous injection of a microparticle formulation (Example 13); type: in vivo, beagle dogs; details: hGH IR 5 × 0.1 mg/kg per day, Formulation 3 0.5 mg/kg
Experimental: (§1) Twelve naïve beagle dogs (weighing 7 to 10 kg) were treated with the following formulations:
The hGH IR corresponds to a solution of recombinant human growth hormone ([hGH]=4.1 mg/ml, pH=7.2, 330 mOsm). Formulation 3 is prepared according to Example 9.

[2] = Pharmacokinetics of hGH in the dog after subcutaneous injection of nanoparticle and microparticle formulations (Example 12); type: in vivo, beagle dogs; details: 1 mg/kg hGH
Experimental: as §1
The hGH IR corresponds to a solution of recombinant human growth hormone ([hGH]=4 mg/ml, pH=7.2, 330 mOsm).
Formulation 1 is prepared according to Example 2 and formulation 2 according to Example 7. The hGH is assayed by ELISA (DSL 10-1900 kit).
where: • Cmax is the maximum serum hGH concentration, • T>5 ng/ml is the time when the serum hGH concentration is greater than 5 ng/ml, • AUC represents the area under the curve of serum hGH concentration as a function of time, • RBA represents the bioavailability relative to an Immediate-Release formulation, • T50% auc represents the time required to release 50% of the total hGH released.

hGH IR: solution of recombinant human growth hormone, immediate-release reference
AUC0-last ± SD [1]: 258 ± 26 ng·h/mL
Cmax ± SD (maximum serum hGH concentration) [1]: 90 ± 24 ng/mL
RBA (bioavailability relative to an Immediate-Release formulation) [1]: 100%
T50% auc ± SD [1]: 2 ± 0.3 h
T > 1 ng/ml ± SD [1]: 39 h
RBA (bioavailability relative to an Immediate-Release formulation) [2]: 100%
T50% auc ± SD (time required to release 50% of the total hGH released) [2]: 4 ± 1 h
T > 5 ng/ml ± SD (time when serum hGH concentration is greater than 5 ng/ml) [2]: 18 ± 3 h
apparent T½ (elimination) [2]: about 2 hours
median time to reach maximum serum concentration [2]: 2 h
time beyond which circulating hGH is no longer quantifiable [2]: 24 h
AUC0-last ± SD ([2]; serum hGH): 3209 ± 276 ng·h/mL
Cmax ± SD (maximum serum hGH concentration) ([2]; serum, ELISA, 1 mg/kg): 582 ± 155 ng/mL
